B1: Hemojuvelin (Homo sapiens), Q6ZVN8-1 (parent)
chain: MGEPGQSPSPRSSHGSPPTLSTLTLLLLLCGHAHSQCKILRCNAEYVSSTLSLRGGGSSGALRGGGGGGRGGGVGSGGLCRALRSYALCTRRTARTCRGDLAFHSAVHGIEDLMIQHNCSRQGPTAPPPPRGPALPGAGSGLPAPDPCDYEGRFSRLHGRPPGFLHCASFGDPHVRSFHHHFHTCRVQGAWPLLDNDFLFVQATSSPMALGANATATRKLTIIFKNMQECIDQKVYQAEVDNLPVAFEDGSINGGDRPGGSSLSIQTANPGNHVEIQAAYIGTTIIIRQTAGQLSFSIKVAEDVAMAFSAEQDLQLCVGGCPPSQRLSRSERNRRGAITIDTARRLCKEGLPVEDAYFHSCVFDVLISGDPNFTVAAQAALEDARAFLPDLEKLHLFPSDAGVPLSSATLLAPLLSGLFVLWLCIQ
partner: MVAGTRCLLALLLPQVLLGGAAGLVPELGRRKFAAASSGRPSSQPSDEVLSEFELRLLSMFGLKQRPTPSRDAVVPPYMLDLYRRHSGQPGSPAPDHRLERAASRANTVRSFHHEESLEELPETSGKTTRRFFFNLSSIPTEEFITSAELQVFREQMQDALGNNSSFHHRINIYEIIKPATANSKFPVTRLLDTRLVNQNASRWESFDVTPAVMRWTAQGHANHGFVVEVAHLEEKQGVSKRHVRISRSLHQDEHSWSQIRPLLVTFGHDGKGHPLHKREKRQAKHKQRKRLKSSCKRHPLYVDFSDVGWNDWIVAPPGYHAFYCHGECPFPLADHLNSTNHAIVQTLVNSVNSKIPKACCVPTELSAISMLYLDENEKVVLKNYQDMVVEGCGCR
B2: Repulsive guidance molecule B (Homo sapiens), Q6NW40 (parent)
chain: MGLRAAPSSAAAAAAEVEQRRSPGLCPPPLELLLLLLFSLGLLHAGDCQQPAQCRIQKCTTDFVSLTSHLNSAVDGFDSEFCKALRAYAGCTQRTSKACRGNLVYHSAVLGISDLMSQRNCSKDGPTSSTNPEVTHDPCNYHSHAGAREHRRGDQNPPSYLFCGLFGDPHLRTFKDNFQTCKVEGAWPLIDNNYLSVQVTNVPVVPGSSATATNKITIIFKAHHECTDQKVYQAVTDDLPAAFVDGTTSGGDSDAKSLRIVERESGHYVEMHARYIGTTVFVRQVGRYLTLAIRMPEDLAMSYEESQDLQLCVNGCPLSERIDDGQGQVSAILGHSLPRTSLVQAWPGYTLETANTQCHEKMPVKDIYFQSCVFDLLTTGDANFTAAAHSALEDVEALHPRKERWHIFPSSGNGTPRGGSDLSVSLGLTCLILIVFL
partner: B1 partner

Variants of: B1
Details: with bmp2_human BMP2, P12643

Row | effect of a mutation on the interaction | Variant
1 | decreasing interaction strength | L101P
2 | decreasing interaction strength | G99R

Variants of: B2
Details: with bmp2_human BMP2, P12643

Row | effect of a mutation on the interaction | Variant
3 | decreasing interaction strength | H106R

From IntAct's records for PubMed 25938661
